Where a chain is given by its changes, count along the chain named. Names may count otherwise.
B1: HC-T030A (antibody, V domains shown)
VH: EVQLVQSGAEVKKPGATVKISCKVSGYSFAGHTMNWIRQPPGKGLEWIGLIKPSNGGTSYNQKFKGRVTISADKSISTAYLQWSSLKASDTAMYYCAHGHYESYFAMDYWGQGTLVTVSS
VL: DIQMTQSPSSLSASVGDRVTITCKASQDVSSAVAWYQQKPGQAPRLLIYWASTRHTGVPSRFSGSGSGTEFTLTISSLQPDDFATYYCQEHFSTPLTFGQGTKVEIK
B2: HC-N035I (antibody, V domains shown)
VH: B1 VH with A30T, N35I
VL: B1 VL
B3: HC-W110H (antibody, V domains shown)
VH: B1 VH with A30T, W110H
VL: B1 VL
B4: LC-V029D (antibody, V domains shown)
VH: B1 VH with A30T
VL: B1 VL with V29D
B5: LC-H091S (antibody, V domains shown)
VH: B1 VH with A30T
VL: B1 VL with H91S
B6: LC-V029G (antibody, V domains shown)
VH: B1 VH with A30T
VL: B1 VL with V29G
B7: LC-H091T (antibody, V domains shown)
VH: B1 VH with A30T
VL: B1 VL with H91T
B8: LC-V029N (antibody, V domains shown)
VH: B1 VH with A30T
VL: B1 VL with V29N
B9: HC-E102N (antibody, V domains shown)
VH: B1 VH with A30T, E102N
VL: B1 VL
B10: LC-H091V (antibody, V domains shown)
VH: B1 VH with A30T
VL: B1 VL with H91V
B11: LC-V029W (antibody, V domains shown)
VH: B1 VH with A30T
VL: B1 VL with V29W
B12: LC-H091Y (antibody, V domains shown)
VH: B1 VH with A30T
VL: B1 VL with H91Y
B13: LC-A032L (antibody, V domains shown)
VH: B1 VH with A30T
VL: B1 VL with A32L
B14: LC-F092C (antibody, V domains shown)
VH: B1 VH with A30T
VL: B1 VL with F92C
B15: LC-A032M (antibody, V domains shown)
VH: B1 VH with A30T
VL: B1 VL with A32M
B16: LC-F092D (antibody, V domains shown)
VH: B1 VH with A30T
VL: B1 VL with F92D
B17: LC-A034D (antibody, V domains shown)
VH: B1 VH with A30T
VL: B1 VL with A34D
B18: LC-F092E (antibody, V domains shown)
VH: B1 VH with A30T
VL: B1 VL with F92E
B19: LC-A034N (antibody, V domains shown)
VH: B1 VH with A30T
VL: B1 VL with A34N
B20: LC-F092G (antibody, V domains shown)
VH: B1 VH with A30T
VL: B1 VL with F92G
B21: LC-A034Q (antibody, V domains shown)
VH: B1 VH with A30T
VL: B1 VL with A34Q

Assays:
[1] = molecular target: Axl (UniProt P30530); experiment: ELISA, 1:9 dilution
[2] = molecular target: T1, Axl (Homo sapiens, UniProt P30530); experiment: Affinity ELISA of CPE mutant antibodies for binding to Axl at pH 6.0 over pH 7.4; conditions: for Affinity ELISA CPE mutant ratio (1:3, pH 6.0/7.4): 1:3 dilution; for Affinity ELISA CPE mutant ratio (1:9, pH 6.0/7.4): 1:9 dilution
T1 sequence (P30530 26-451 limits assumed): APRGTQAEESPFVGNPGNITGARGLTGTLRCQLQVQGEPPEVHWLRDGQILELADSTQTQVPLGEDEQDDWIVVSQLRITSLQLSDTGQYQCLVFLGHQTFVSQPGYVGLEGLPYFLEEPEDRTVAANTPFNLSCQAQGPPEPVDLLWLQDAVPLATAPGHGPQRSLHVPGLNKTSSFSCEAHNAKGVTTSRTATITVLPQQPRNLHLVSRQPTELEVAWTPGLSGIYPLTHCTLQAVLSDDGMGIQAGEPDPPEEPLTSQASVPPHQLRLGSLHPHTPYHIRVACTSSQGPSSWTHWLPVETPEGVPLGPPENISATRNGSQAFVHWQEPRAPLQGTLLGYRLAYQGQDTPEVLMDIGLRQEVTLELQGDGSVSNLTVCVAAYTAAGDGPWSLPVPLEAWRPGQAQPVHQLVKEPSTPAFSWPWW
Excerpt: The DNA encoding the wild-type antibody was evolved to generate a mutant antibody library using Comprehensive Positional Evolution (CPE), which each position in the template antibody is randomized one at a time. Each mutant antibody in the library has only one single point mutation. The mutant antibodies in the library were generated by simultaneously screening for selective binding affinity to Axl at pH 6.0 over pH 7.4 by ELISA. Two mutant antibody dilutions were used: 1:3 and 1:9 dilutions. The mutant antibodies that have at least 1.5 ratio of binding affinity at pH 6.0 to at pH 7.4 under either 1:3 or 1:9 dilution are selected as conditionally active antibodies, with the single point mutations indicated in each of the heavy chain and light chain variable region (Tables 1 and 2).
A wild-type antibody to Axl was selected as the template antibody (with a heavy chain variable region of 063-hum10F10-HC in FIG. 1A and a light chain variable region of […]). The DNA encoding the wild-type antibody was evolved to generate a mutant antibody library using Comprehensive Positional Evolution (CPE), a method by which each position in the template antibody is randomized one at a time. Each mutant antibody in the library has only one single point mutation. The mutant antibodies in the library were generated by simultaneously screening for selective binding affinity to Axl at pH 6.0 over pH 7.4 as determined by ELISA.
Simultaneously, the expression level of the mutant antibodies was also optimized for the purpose of higher fields in a manufacturing process. The screening was done in serum using a FLAG tag because there were human antibodies in the serum which might cause false positives for the screening. The screening buffer was a carbonate buffer (Krebs buffer with ringer-standard buffer but different from PBS). […] Some of the selected mutant antibodies (scFv) were represented in FIG. 2 with their higher activity at pH 6.0 than at pH 7.4, while their activity ratios between pH 6.0 to pH 7.4 were at least 11 fold (FIG. 3).

[3] = molecular target: Axl (UniProt P30530); experiment: ELISA, 1:3 dilution
[4] = heavy chain variable region mutants
[5] = light chain variable region mutants

Row | Molecule | Affinity ELISA CPE mutant ratio (1:9, pH 6.0/7.4) [1] | Affinity ELISA CPE mutant ratio (1:3, pH 6.0/7.4) [2, 4] | Affinity ELISA CPE mutant ratio (1:9, pH 6.0/7.4) [2, 4] | Affinity ELISA CPE mutant ratio (1:3, pH 6.0/7.4) [3] | Affinity ELISA CPE mutant ratio (1:3, pH 6.0/7.4) [2, 5] | Affinity ELISA CPE mutant ratio (1:9, pH 6.0/7.4) [2, 5]
1 | B1 | 1.76 | 1.292 | 1.762 | 1.29 | – | –
2 | B2 | 1.12 | 2.814 | 1.121 | 2.81 | – | –
3 | B3 | 0.932 | 7.993 | 0.932 | 7.99 | – | –
4 | B4 | 2.68 | – | – | 2.88 | 2.882 | 2.679
5 | B5 | 1.34 | – | – | 1.76 | 1.758 | 1.336
6 | B6 | 1.8 | – | – | 1.94 | 1.939 | 1.803
7 | B7 | 3.78 | – | – | 3.78 | 3.779 | 3.781
8 | B8 | 2.65 | – | – | 2.6 | 2.595 | 2.652
9 | B9 | 1.57 | 1.520 | 1.567 | 1.52 | – | –
10 | B10 | 1.17 | – | – | 4.13 | 4.133 | 1.171
11 | B11 | 2.35 | – | – | 2.31 | 2.310 | 2.353
12 | B12 | 5.13 | – | – | 3.93 | 3.931 | 5.126
13 | B13 | 2.27 | – | – | 1.98 | 1.982 | 2.272
14 | B14 | 4.58 | – | – | 3.86 | 3.862 | 4.576
15 | B15 | 2.92 | – | – | 4.76 | 4.757 | 2.920
16 | B16 | 2.94 | – | – | 2.97 | 2.969 | 2.940
17 | B17 | 2.6 | – | – | 3 | 3.005 | 2.599
18 | B18 | 2 | – | – | 1.76 | 1.759 | 1.999
19 | B19 | 2.4 | – | – | 2.63 | 2.626 | 2.403
20 | B20 | 4.76 | – | – | 3.69 | 3.692 | 4.758
21 | B21 | 1.41 | – | – | 2 | 1.999 | 1.409

— patent US20250276075A1, “METHODS OF TREATING AXL-EXPRESSING CANCERS WITH ANTI-AXL ANTIBODIES, ANTIBODY FRAGMENTS AND THEIR IMMUNOCONJUGATES” (BIOATLA, INC., priority 2020, published 2025)
